Data set [1] deals with T1, DmORC holocomplex (Orc1-6) (Drosophila melanogaster) (UniProt O16810+Q24168+Q24169+Q9Y1B2). Briefly: fluorescence polarization. To be noted: EMSA: 50 mM HEPES pH 7.5, 150 mM K-glutamate, 10% glycerol, 1 mM BME, 2 nM DNA, RT 20 min, 1% agarose; FP: same with 150 or 300 mM K-glutamate, 5 mM MgOAc ….
The target in data set [2] is DmORC delta1IDR holocomplex Orc1:del248-549 (Drosophila melanogaster) (UniProt O16810+Q24168+Q24169+Q9Y1B2). As to the kind of experiment: fluorescence polarization. To be noted: EMSA: 50 mM HEPES pH 7.5, 150 mM K-glutamate, 10% glycerol, 1 mM BME, 2 nM DNA, RT 20 min, 1% agarose, FP: same with 150 or 300 mM K-glutamate.
DmORC delta1IDR holocomplex Orc1:del248-549 (Drosophila melanogaster), sequence (O16810 whole entry, stated change not applied, chain 1 of 4): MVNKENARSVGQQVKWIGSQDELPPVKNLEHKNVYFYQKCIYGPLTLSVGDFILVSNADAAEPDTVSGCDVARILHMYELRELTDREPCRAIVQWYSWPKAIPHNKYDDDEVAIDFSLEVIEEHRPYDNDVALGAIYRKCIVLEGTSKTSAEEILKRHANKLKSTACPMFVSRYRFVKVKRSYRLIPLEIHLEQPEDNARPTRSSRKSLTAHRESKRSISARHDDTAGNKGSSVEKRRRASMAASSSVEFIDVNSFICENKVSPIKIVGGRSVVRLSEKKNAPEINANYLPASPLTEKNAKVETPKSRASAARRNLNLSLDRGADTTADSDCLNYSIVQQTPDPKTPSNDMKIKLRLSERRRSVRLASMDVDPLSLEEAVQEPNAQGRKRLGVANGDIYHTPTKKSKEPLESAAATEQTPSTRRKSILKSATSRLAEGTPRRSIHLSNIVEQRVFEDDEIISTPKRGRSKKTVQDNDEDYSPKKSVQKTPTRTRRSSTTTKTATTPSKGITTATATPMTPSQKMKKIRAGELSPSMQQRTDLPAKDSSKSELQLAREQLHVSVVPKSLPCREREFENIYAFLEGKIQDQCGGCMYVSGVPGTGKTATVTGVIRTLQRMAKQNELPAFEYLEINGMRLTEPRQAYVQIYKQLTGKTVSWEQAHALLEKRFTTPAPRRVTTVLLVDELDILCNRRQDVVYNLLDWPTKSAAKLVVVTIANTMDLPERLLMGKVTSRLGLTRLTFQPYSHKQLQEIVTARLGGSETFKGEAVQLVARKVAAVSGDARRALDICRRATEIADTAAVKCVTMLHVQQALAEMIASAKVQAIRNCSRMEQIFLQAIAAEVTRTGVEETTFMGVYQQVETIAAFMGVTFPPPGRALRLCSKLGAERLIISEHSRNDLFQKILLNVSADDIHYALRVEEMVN
DmORC delta1IDR holocomplex Orc1:del248-549 (Drosophila melanogaster), sequence (Q24168 whole entry, stated change not applied, chain 2 of 4): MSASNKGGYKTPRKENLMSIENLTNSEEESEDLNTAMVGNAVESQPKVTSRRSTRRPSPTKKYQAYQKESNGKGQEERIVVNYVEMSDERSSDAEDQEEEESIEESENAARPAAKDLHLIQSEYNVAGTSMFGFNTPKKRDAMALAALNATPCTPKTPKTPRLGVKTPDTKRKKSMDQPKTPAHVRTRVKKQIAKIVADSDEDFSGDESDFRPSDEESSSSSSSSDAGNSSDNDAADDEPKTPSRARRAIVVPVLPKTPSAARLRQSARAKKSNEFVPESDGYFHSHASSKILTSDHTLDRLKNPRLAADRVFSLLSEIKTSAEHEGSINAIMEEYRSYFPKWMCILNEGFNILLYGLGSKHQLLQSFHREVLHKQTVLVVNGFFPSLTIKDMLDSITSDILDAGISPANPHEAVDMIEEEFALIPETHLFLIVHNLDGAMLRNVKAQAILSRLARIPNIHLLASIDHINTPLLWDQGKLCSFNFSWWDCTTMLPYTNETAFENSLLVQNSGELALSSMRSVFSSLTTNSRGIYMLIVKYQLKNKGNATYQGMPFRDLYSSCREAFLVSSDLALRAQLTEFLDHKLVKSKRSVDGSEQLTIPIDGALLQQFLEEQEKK
DmORC delta1IDR holocomplex Orc1:del248-549 (Drosophila melanogaster), sequence (Q24169 whole entry, stated change not applied, chain 3 of 4): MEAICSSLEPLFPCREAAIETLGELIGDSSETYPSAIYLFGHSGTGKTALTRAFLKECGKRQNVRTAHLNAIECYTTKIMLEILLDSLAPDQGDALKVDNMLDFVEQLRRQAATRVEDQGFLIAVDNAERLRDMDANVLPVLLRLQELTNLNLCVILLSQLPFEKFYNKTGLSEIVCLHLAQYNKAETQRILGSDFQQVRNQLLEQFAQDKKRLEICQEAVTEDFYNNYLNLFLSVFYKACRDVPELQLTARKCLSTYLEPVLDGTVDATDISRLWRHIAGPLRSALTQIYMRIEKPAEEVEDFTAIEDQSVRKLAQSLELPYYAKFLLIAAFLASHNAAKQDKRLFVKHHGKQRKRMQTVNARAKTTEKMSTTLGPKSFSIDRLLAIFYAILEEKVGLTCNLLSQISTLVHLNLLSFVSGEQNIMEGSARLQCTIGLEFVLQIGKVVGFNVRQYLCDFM
DmORC delta1IDR holocomplex Orc1:del248-549 (Drosophila melanogaster), sequence (Q9Y1B2 whole entry, stated change not applied, chain 4 of 4): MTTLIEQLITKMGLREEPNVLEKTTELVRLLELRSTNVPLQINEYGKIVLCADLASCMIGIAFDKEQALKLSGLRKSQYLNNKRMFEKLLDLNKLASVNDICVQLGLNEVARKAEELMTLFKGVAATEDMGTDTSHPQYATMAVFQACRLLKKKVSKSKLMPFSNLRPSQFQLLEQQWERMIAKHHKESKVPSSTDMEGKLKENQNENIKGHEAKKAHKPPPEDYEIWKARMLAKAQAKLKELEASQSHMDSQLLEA
Data set [3] concerns AmOrc1 IDR (Acropora millepora). As to the kind of experiment: fluorescence polarization. To be noted: about 100 nM or less; EMSA: 50 mM HEPES pH 7.5, 150 mM K-glutamate, 10% glycerol, 1 mM BME, 2 nM DNA, RT 20 min, 1% agarose; FP: same with 150 or 300 mM K-glutamate, 5 mM MgOAc ….
The target in data set [4] is T1, DmORC holocomplex (Orc1-6) (Drosophila melanogaster). As to the kind of experiment: fluorescence polarization. Particulars: EMSA: 50 mM HEPES pH 7.5, 150 mM K-glutamate, 10% glycerol, 1 mM BME, 2 nM DNA, RT 20 min, 1% agarose; FP: same with 150 or 300 mM K-glutamate, 5 mM MgOAc …. The source holds these as a separate data set.
The test system of data set [5] is DgOrc1 IDR (Dimorphilus gyrociliatus). Briefly: fluorescence polarization. To be noted: about 100 nM or less; EMSA: 50 mM HEPES pH 7.5, 150 mM K-glutamate, 10% glycerol, 1 mM BME, 2 nM DNA, RT 20 min, 1% agarose; FP: same with 150 or 300 mM K-glutamate, 5 mM MgOAc ….
The test system of data set [6] is MyOrc1 IDR (Mizuhopecten yessoensis). Briefly: fluorescence polarization. To be noted: about 100 nM or less; EMSA: 50 mM HEPES pH 7.5, 150 mM K-glutamate, 10% glycerol, 1 mM BME, 2 nM DNA, RT 20 min, 1% agarose; FP: same with 150 or 300 mM K-glutamate, 5 mM MgOAc ….
Data set [7] concerns AqOrc1 IDR (Amphimedon queenslandica). As to the kind of experiment: fluorescence polarization. To be noted: about 100 nM or less; EMSA: 50 mM HEPES pH 7.5, 150 mM K-glutamate, 10% glycerol, 1 mM BME, 2 nM DNA, RT 20 min, 1% agarose; FP: same with 150 or 300 mM K-glutamate, 5 mM MgOAc ….
The target in data set [8] is T2, DmOrc1 IDR delta P (Drosophila melanogaster, UniProt O16810 187-549, S263A;S293A;T304A;T341A;T346A;T401A;T419A;T439A;T463A;S481A;T489A;T505A;T516A;T5 …).
T2 sequence: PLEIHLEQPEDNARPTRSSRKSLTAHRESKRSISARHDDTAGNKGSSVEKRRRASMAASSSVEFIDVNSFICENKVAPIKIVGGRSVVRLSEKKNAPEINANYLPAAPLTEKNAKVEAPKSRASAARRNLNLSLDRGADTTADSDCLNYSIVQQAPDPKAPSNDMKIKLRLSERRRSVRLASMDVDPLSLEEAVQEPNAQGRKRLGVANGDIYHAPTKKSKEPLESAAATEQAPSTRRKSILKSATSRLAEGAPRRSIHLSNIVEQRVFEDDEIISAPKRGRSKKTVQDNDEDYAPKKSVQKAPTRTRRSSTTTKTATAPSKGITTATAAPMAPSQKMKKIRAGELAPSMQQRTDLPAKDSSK
As to the kind of experiment: EMSA; 600 nM; EMSA: 50 mM HEPES pH 7.5, 150 mM K-glutamate, 10% glycerol, 1 mM BME, 2 nM DNA, RT 20 min, 1% agarose; FP: same with 150 or 300 mM K-glutamate, 5 mM MgOAc, 0 or 1 mM ATP, RT 30 min. Particulars: protein: recombinant; blunt (60-bp duplex).

Data set [9] concerns the target T3, DmOrc1 IDR (Drosophila melanogaster, UniProt O16810 187-549).
T3 sequence: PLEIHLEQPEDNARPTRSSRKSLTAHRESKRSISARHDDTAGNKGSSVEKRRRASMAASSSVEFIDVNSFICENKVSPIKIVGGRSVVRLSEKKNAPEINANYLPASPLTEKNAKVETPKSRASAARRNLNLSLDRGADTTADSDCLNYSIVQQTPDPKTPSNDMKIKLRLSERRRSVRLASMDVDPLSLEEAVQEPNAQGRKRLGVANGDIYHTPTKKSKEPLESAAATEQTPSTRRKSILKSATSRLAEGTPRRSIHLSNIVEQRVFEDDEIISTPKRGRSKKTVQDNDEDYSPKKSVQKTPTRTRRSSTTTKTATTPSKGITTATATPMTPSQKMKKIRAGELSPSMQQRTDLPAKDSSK
Briefly: EMSA; no ATP; text says FITC, legend Cy5; EMSA: 50 mM HEPES pH 7.5, 150 mM K-glutamate, 10% glycerol, 1 mM BME, 2 nM DNA, RT 20 min, 1% agarose; FP: same with 150 or 300 mM K-glutamate, 5 mM MgOAc, 0 or 1 mM ATP, RT 30 min. Particulars: protein: recombinant; tags: His6-MBP removed by TEV; blunt (60-bp duplex).

The target in data set [10] is T3, DmOrc1 IDR. As to the kind of experiment: EMSA; unphosphorylated, compared with pOrc1IDR; label not stated; EMSA: 50 mM HEPES pH 7.5, 150 mM K-glutamate, 10% glycerol, 1 mM BME, 2 nM DNA, RT 20 min, 1% agarose; FP: same with 150 or 300 mM K-glutamate, 5 mM MgOAc, 0 or 1 mM ATP, RT 30 min. Particulars: protein: recombinant; tags: His6-MBP removed by TEV; blunt (60-bp duplex).

For data set [11], the target named is T4, DmOrc1 IDR delta4 (Drosophila melanogaster, UniProt O16810 187-549, del367-426).
T4 sequence: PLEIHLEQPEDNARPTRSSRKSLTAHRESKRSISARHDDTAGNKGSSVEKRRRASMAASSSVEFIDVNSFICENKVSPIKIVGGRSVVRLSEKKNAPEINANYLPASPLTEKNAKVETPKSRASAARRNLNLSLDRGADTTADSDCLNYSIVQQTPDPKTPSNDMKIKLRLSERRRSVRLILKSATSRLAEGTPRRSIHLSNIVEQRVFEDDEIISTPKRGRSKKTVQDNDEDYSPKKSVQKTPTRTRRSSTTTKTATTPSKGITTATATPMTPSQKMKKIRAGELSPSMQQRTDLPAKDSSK
As to the kind of experiment: EMSA; EMSA: 50 mM HEPES pH 7.5, 150 mM K-glutamate, 10% glycerol, 1 mM BME, 2 nM DNA, RT 20 min, 1% agarose; FP: same with 150 or 300 mM K-glutamate, 5 mM MgOAc, 0 or 1 mM ATP, RT 30 min. To be noted: protein: recombinant; tags: His6-MBP removed by TEV; blunt (60-bp duplex).

In data set [12] the target is T5, DmOrc1 IDR delta3 (Drosophila melanogaster, UniProt O16810 187-549, del307-366).
T5 sequence: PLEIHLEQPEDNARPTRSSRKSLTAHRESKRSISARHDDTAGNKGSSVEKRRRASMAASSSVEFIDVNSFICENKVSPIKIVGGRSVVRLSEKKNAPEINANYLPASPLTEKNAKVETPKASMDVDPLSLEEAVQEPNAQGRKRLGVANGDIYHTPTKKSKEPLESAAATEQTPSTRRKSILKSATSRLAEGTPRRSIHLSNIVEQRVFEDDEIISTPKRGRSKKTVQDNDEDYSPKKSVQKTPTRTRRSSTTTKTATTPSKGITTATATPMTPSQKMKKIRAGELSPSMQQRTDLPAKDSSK
The description is as above. Particulars: protein: recombinant; tags: His6-MBP removed by TEV; blunt (60-bp duplex).

The target in data set [13] is T6, DmOrc1 IDR delta5 (Drosophila melanogaster, UniProt O16810 187-549, del427-486).
T6 sequence: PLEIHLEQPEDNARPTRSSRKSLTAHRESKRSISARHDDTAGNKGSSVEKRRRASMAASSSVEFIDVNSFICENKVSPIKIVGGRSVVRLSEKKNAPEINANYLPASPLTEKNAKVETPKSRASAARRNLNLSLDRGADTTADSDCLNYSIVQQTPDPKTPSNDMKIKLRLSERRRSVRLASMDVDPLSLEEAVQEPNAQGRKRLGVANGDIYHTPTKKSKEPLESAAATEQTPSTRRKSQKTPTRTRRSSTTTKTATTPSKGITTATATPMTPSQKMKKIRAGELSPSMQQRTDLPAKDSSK
The description is as above. To be noted: protein: recombinant; tags: His6-MBP removed by TEV; blunt (60-bp duplex).

Data set [14] concerns the target T7, DmOrc1 IDR delta1 (Drosophila melanogaster, UniProt O16810 247-549, del187-246).
T7 sequence: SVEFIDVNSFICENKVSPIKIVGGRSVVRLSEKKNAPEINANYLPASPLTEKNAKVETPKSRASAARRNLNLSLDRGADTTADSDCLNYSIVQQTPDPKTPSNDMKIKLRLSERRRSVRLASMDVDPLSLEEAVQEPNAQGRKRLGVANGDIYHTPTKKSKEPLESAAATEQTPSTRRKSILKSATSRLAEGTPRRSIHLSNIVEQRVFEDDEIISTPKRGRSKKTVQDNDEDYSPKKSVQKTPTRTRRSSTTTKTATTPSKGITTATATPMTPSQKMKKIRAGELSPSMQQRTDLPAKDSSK
The description is as above. To be noted: protein: recombinant; tags: His6-MBP removed by TEV; blunt (60-bp duplex).

Data set [15] has as its target T8, DmOrc1 IDR delta2 (Drosophila melanogaster, UniProt O16810 187-549, del247-306).
T8 sequence: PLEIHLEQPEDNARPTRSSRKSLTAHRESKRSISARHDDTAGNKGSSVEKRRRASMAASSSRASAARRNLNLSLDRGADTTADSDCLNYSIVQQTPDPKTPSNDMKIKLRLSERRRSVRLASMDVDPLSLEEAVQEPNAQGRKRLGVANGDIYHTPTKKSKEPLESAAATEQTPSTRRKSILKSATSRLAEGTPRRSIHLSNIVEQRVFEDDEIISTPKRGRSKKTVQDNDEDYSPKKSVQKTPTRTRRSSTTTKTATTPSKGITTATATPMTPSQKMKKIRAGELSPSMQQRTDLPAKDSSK
Described as above. Particulars: protein: recombinant; tags: His6-MBP removed by TEV; blunt (60-bp duplex).

Data set [16] has as its target T9, DmOrc1 IDR delta6 (Drosophila melanogaster, UniProt O16810 187-486, del487-549).
T9 sequence: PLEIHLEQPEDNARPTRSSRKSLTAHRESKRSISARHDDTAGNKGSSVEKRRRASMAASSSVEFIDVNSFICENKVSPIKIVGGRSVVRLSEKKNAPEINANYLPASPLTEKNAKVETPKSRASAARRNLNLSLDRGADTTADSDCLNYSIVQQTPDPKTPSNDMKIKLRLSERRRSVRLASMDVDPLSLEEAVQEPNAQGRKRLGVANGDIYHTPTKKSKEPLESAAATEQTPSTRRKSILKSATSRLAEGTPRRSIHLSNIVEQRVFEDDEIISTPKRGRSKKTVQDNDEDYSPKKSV
Described as above. To be noted: protein: recombinant; tags: His6-MBP removed by TEV; blunt (60-bp duplex).

Data set [17] deals with T10, DmOrc1 IDR delta BP (Drosophila melanogaster, UniProt O16810 187-549, del520-533).
T10 sequence: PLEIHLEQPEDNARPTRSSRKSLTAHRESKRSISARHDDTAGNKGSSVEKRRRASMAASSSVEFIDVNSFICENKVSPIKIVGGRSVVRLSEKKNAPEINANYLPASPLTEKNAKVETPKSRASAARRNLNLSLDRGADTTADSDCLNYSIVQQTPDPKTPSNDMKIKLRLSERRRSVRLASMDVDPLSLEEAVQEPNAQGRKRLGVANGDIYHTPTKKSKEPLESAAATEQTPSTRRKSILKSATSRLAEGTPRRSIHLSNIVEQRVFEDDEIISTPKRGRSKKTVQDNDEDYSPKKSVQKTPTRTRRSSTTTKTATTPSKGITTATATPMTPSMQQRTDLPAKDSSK
As to the kind of experiment: EMSA; text says FITC, legend Cy5; EMSA: 50 mM HEPES pH 7.5, 150 mM K-glutamate, 10% glycerol, 1 mM BME, 2 nM DNA, RT 20 min, 1% agarose; FP: same with 150 or 300 mM K-glutamate, 5 mM MgOAc, 0 or 1 mM ATP, RT 30 min. Particulars: protein: recombinant; tags: His6-MBP removed by TEV; blunt (60-bp duplex).

Values joined by “and” are separate entries in the source; they are usually repeats but may differ in a detail not shown here. Equal values may be shown once.

T1 sequence (O16810 whole entry, chain 1 of 4): as the sequence (O16810 whole entry, stated change not applied, chain 1 of 4) above
T1 sequence (Q24168 whole entry, chain 2 of 4): as the sequence (Q24168 whole entry, stated change not applied, chain 2 of 4) above
T1 sequence (Q24169 whole entry, chain 3 of 4): as the sequence (Q24169 whole entry, stated change not applied, chain 3 of 4) above
T1 sequence (Q9Y1B2 whole entry, chain 4 of 4): as the sequence (Q9Y1B2 whole entry, stated change not applied, chain 4 of 4) above

With “GAAGCTAGACTTAGGTGTCATATTGAACCTACTATGCCGAACTAGTTACGAGCTATAACC (double strand) [FITC-dsDNA 60 bp]”, the dissociation constant (Kd) in [1] was 6 nM and 34 nM; in data set [2] (5 mM MgOAc …), 19 nM; in [2] (no ATP, 150 mM KGlut, 5 mM MgOAc, severely impaired), more than 1000 nM; in [3], 100 nM; in data set [4], 7 nM; in [5], 100 nM. Also, the Kd in data set [6] and in data set [7] was 100 nM each time.

B1: Cy5-dsDNA 60 bp (dsDNA)
DNA 1: GAAGCTAGACTTAGGTGTCATATTGAACCTACTATGCCGAACTAGTTACGAGCTATAACC
DNA 2: GGTTATAGCTCGTAACTAGTTCGGCATAGTAGGTTCAATATGACACCTAAGTCTAGCTTC
For the molecule B1, in data set [8], the binding result is given as “binds”. The dissociation constant Kd in [9] was 15 ± 4 nM; in data set [10], 21 nM; in data set [11], 62 ± 26 nM; in data set [12], less than 100 nM; in [13], less than 100 nM; in data set [14] it was less than 100 nM. Besides, the equilibrium dissociation constant (Kd) is less than 100 nM in [15], less than 100 nM in data set [16] and 8 ± 2 nM in data set [17].

The values above are taken from paper PMC11077064, “The origin recognition complex requires chromatin tethering by a hypervariable intrinsically disordered region that is functionally conserved from sponge to man”.
